According to the DeepSol protein solubility set:

Experiment: soluble on expression in E. coli; label from the status in PepcDB or PDB records

| Sequence | soluble on expression in E. coli |
| --- | --- |
| MGSDKIHHHHHHGETIDLGHDTTLDYSVTASYGAAVRTGTQSNTLLSPANINGDDGNRNFKRGDMTANRVSLLGEAHVKHDAFGALVRGSVFYDWAYSGTNSNNAPGTVNHSGPFNEFTGSARDYHESRAQLLDAYVYGAVPIESTQLSFKLGNQVVAWGESLFFANIAGAQGPADATKAFVPGAEVKDILLPVPQASVQWQVTPAFSLMGYYQFTFKPNQLFAPGSYFSTSDIVGPGAEFIIGPGFRIPRGPDISPSDWGQWGIGGRFRVFEDTEIGLYQLRYHDKNPSVVTSLFPTLQYQQKYFGGINLTGASFSTQLAGANVAGEVSYKDGVPMLVDVAGSPTASRGKALQAQLSAIYAIGPTFLANSQTLLGEIAYLHVIGVDSVMGFDKLSNTRNSAAFQVGWSLTYNNVFDGWDLTVPLTYAQQFSGNAAVAGAFGTLMGYGDKRASVGLTFKYLNNLELNLTYAAFIGGASIANRPLADRDYVAFNAKYSF | not soluble |
| TFGKDNIKSKVILFSIEKPSKEVAEKLEMQDDYIYRIIRMREVGHKAYSIEHTYMPLAIIPGLEPHHLEDSIYNYIRDDLKLKMQSAHVWVRGDKSNQEDSKLLDLEEPTFMMEIEKLAHLEDGRVFEYSITRHTYESFV | not soluble |
| MHKPCVIIPVFDHELAVPDVVKAVRAAGLPCVLVDDASSPACAAVLRQLAQGDEIYLVCLPVNQGKGGAVMAGFREAARLGFSHALQVDADGQHDLSDIPVFLEQSRQCPEALICGYPQYDESVPKGRLYARYLTHVWVWINTLSLQIRDSMCGFRLYPLAPVLVLIDAVRIGKRMDFDSEILVRLAWRGQAMRWLPTRVHYPQDGLSHFRLFHDNALISTMHAKLFFGMLMRLPLILWRRWRSLEHHHHHH | not soluble |
| MSLKLIASDMDGTLLDAKMSITNDNASAIREAERLGIEFMVATGRAYTEAKPALEEAGIDCAMITLNGAQVFDKDGHSLFTAGIEKETVTEVLTILSQHNVYYEISTNKGIFSEHQEKRIENFAAHIAESMPHLTYKVAIAMASAHLSLLHITYVDRLDDILKDDSIEVLKIIGFSMDGPKVLGPAGMEVEELDDLVVTSSALNNIEINHRLAQKGIAVARVAKERGIPAEQVMTIGDNLNDVSMIQWAGVSFAMGNAELELKEYAKYETATNLENGVGEAILRAIREDEGHHHHHH | soluble |
| MDPTRGLCALSTHDLAKFHSLPPARKAAGKRAHLRCYSKLLSLKSWEQLASFLSLPPGPTFTDFRLFFEVTLGRRIADCVVVALQPYPRCYIVEFKTAMSNTANPQSVTRKAQRLEGTAQLCDCANFLRTSCPPVLGSQGLEVLAALVFKNQRSLRTLQVEFPALGQKTLPTSTTGLLNLLSRWQDGALRARLDRPRPTAQGHRPRTHVGPKPSQLTARVPRSARAGRAGGRKGQVGAVGQVCPGAQK | not soluble |
| MNQTAAFSEVEMSIVVPKESDIKDVSQLTSVQAPTKVDKNNIEILMSALKKDKKVDVKVDDVASYQEAYDNLKSGKSKAMVLSGSYASLLESVDSNFASNLKTIYTYKIKKKNSNSANPVDSKVFNIYISGIDTYGPISTVSRSDVNIIMTVNMNTHKILLTTTPRDAYVKIPGGGADQYDKLTHAGIYGVETSEQTLEDLYGIKIDYYARINFTSFLKLIDQLGGVTVHNDQAFTQGKFDFPVGDIQMNSEQALGFVRERYNLDGGDNDRGKNQEKVISAILNKLASLKSVSNFTSIVNNLQDSVQTNMSLDTINALANTQLDSGSKFTVTSQAVTGTGSTGQLISYAMPNSSLYMMKLDNSSVASASQAIKNLMEEKLEHHHHHH | soluble |
| MIPDFQTLMLPLLKCVSDGQEHKYRDIIEHLAAEFEVTDEERKELLASGSKAVFDNRVGWARTYLKKAGLLDSPKRAILIISDLGREILSKNPPKIDTKYLRRFPAFIEFQNGYRNDGETEEESITEKIHEQTPEEVLDKAYQRIRKSLASELLNKVIDLSPAFFERLVVELLVKMGYGGSIKDAGKALGKSGDEGIDGTIKEDKLGLDIIYIQAKRWRPGNVVGRPELQKFVGALAGQGAKKGIFITTSNFTKEALTYTPRNETKIVLIDGEQLTQLMIDYNLGCTTQQTYELKKLDSDYFGEE | not soluble |
| MGSDKIHHHHHHMAGGVSLKYILEQLAEERLGFLVNGHAMRQESQVGDLKVMERKKKLLEKRKVDIIKAKAKAVINHVRVEDDGTTCLSYTIHYEYVCKEQDDSLYIEEHIEERMAFLYDHILISDQEIAKKPAGFHEGTSIIDYSEAEEEREAFGRAFQYDRLGAVQYAEKFWNKRNPAYKNFSDNCTNFISQCLHAGGAPMRGHPNRGSGWWMKQSSWSYSWTVAHSMKMYLSNSKAGLRAVRVKSAEELMPGDVICYDFEGDGRFNHTTIVVAKDKGNMPLVNAQTYDSRMRYWSYEDSTAYTPSIRYAFFHIVDDTTKE | not soluble |
| RKPLQEPCTIFLIANGDLINPASRLLIPRKTLNQWDHVLQMVTEKITLRSGAVHRLYTLEGKLVESGAELENGQFYVAVGRDKFKKLPYGELLFD | soluble |
| AICCQVDNCGADLSKVKDYHRRHKVCEIHSKATTALVGGIMQRFCQQCSRFHVLEEFD | soluble |
| MKRDARDAPKSITLGFEADCVTLPIDAILPLRALGKSAKSSRKYRQIAASIAQIGIVEPPVVVRNPDRSATWLLLDGHMRIEALKDAGGSEVECLVSTDDEAFTYNRQISRLAPIQEHKMIRKAIERGVPEEKIALALDLNMSSIRRKARLLDGICEEAVAILKDKPCTNAVFDALRKMRTMRQIEAAELLVNANNYSVAYVNAILAGTPQAQLVESSKPKKVKGITPDAMARMEQELARLQEGIASIQDTYGEDHLHLTVIKGYVGKLLGNARVVRYLAQNHPEFLGEFQTITEITPAEADAAE | not soluble |
| MSVVIERIPKEAIPKSLLLLADPSERQIATYVQRGLTYVAKQGGSVIGVYVLLETRPKTMEIMNIAVAEHLQGKGIGKKLLRHAVETAKGYGMSKLEVGTGNSSVSQLALYQKCGFRIFSIDFDYFSKHYEEEIIENGIVCRDMIRLAMELNKNV | soluble |
| MTIEFINCAGCKAKIAEEDVEKNKVVFFLNRMWHRDHIQCIFCKLQISDNRYFRSSIDPMKPSCYACHIQTNHPSCTGCSLPVIERGLVAFNRLFHIDCFRCAICNKTIPQRKGFYERDMMFYDDVCYMLHIKDVL | not soluble |
| MIYLFTGNMGTGKTSRVVSMILNNEDGLFKMKLEDGTEVDRPLYFCHIDGLDKRQFKAHELTEEQIMSAPLRDVIPEGAVLIVDEAHYTYPVRAAGRPVPPYIQELTELRHHGHTVILMTQHPSQLDIFVRNLVSKHVHLERKAIGMKQYYWYKCVTSLDNPAGVSGVEVASWKPPKEAFKYYKSASQHQ | not soluble |
| MGHHHHHHSHMMPAERRLPLSFVLDVLEGRAQHPGVLYVQKQCSNLPSELPQLLPDLESHVPWASEALGKMPDAVNFWLGEAAAVTSLHKDHYENLYCVVSGEKHFLFHPPSDRPFIPYELYTPGTYQPSDRPFIPYELYTPATYQLTEEGTFKVVDEEAMEKVPWIPLDPLAPDLARYPSYSQAQALRCMVRAGEMLYLPALWFHHVQQSQGCIAVNFWYDMEYDLKYSYFQLLDSLTKASGLD | soluble |
| MAHHHHHHMKNNEEWEKEKIYDRQLRLWGVKAQNRMMKSNVLILGLSGINIEICKNLILNGINITIIDDNIVDEEMVENIFFLNESDIQNYACVAIFKELKSINKMINMKAYIGRMDTSNDSIIIESELVQNADGEISNTKMGKTFSVEKYISNYTSVCVSCEDYPLYKLVKMNEFCHEKNIGFFAAMCNGKFAFLFSDFGNHVIEESYYKAKEGQRKGETGANKAGELQKEGETGANNGGIPIQYCTLSHFLKVPFENFDKKTNKIIFPMFALILFELNKQLNKSDKSIDEQEFSTFCDQFSLAKCKESLGEITKTYRVAFSPSCSIMGGVTSQEIRKFVSKQHESIPNFCVFDMNQSVVCTSMIS | not soluble |
| MGHHHHHHSHMEFVTNYTLEELKKRFTELGLEPYRAKQVFRWVYKKFVTDFEKMTDLGKKHRELLKEHFAFHPLEKLDRVEAPDAVKYLFKTKDGHILETVLIKERDHYTLCVSSQIGCAVGCTFCATALDGLKRNLSTAEIIDQYLQVQQDLGEEKIRNVVFMGMGEPLANYENVRKAVEIMVSPEGLDLSKRRITISTSGIVAQIKRMAQDPVMKEVNLAVSLNAVSQKKREELMPLTKTNTLEELMEVLKNYPLPKYRRITLEYVLIKGVNDSPNDAERLAKLIGRHKKKFKVNLIPFNPDPNLPYERPALTDIMKFQKVLWKYGISNFVRFSKGVEVFGACGQLRTQRLQLQRV | soluble |
| MGSDKIHHHHHHMIIDLSQLPEPEVIENLDFETIYQELLGDFREAMAGEWTAEVESDPVLKLLQLAAYRELLLRARINDAARAVMLAYASGADLDQIGAGFNVQRLLIRPAQPEAVPPVEAQYESDKSLRNRIQLAFEQLSVAGPRNAYIAHALGADGRVADASATSPAPCEVLISVLGVEGNGQAPEAVLQAVRLALNAEDVRPVADRVTVRSAGIVPYQVKAQLYLFPGPEAELIRAAAEASLRDYISAQRRLGRDIRRSALFATLHVEGVQRVELQEPAADVVLDETQAAYCTGYAITLGGVDE | not soluble |
| MTDIETIYKKLSHVISKEDFLQRIQEKVENMGGLCDETMAAMLVANELGFSDAGRDSIKIENITPESGPVNFIARIISVFDTKEFTRNDGTIGRVGNLIVGDETGKVKLTLWDNMADLIKMGKIKAGQSVQVSGFAKQGYSGVEVNIGNNGVLTESEEEIDVVSNSYKIKDIKDGMGDINLNGKVLEVSEIRTFQRKDGNSGRVGNLMLGDETGTLRVTLWDDKTDFLSQVEYGDSIELINAYARENAFSQKVELQVGNRSIIRKSEKKIEYEEEFTPIDDIKADMNNINISGRILDISEVRTFEKKDGSTGRVGNVLLGDSTGKIRLTLWDEKTDILEEIDFDETVEVLNAYSRENTFSQQVELNLGARGIIQRSEKKVEYREKFTDIADIIPGESYSIQGKVAEIGELREFEKEDGTENVVANLQLKDDTGSIRLTLWGEQAYVIEDLDIDSEIQIIDAYARYGLNEEIELSVGNRSRVIILLEHHHHHH | soluble |
| MKEKISEKEYKALIRKTGKEHFDGEKEEYGDGTVGVWTYELRKYKLKPPVKVKYVTQEQFQEYKDSNNQRLIKIENKVDKLVEIVQIHGEQIKAQGETLQLILQTLQKMSDRLDKMEKRIDKLESKLEHHHHHH | not soluble |
| MGHHHHHHSHMDKNVISVKIMEEKRDESTGVIYRKRIAICQNVVPEILRKVSILKVPNIQLEEESWLNPRERNMAIRSHCLTWTQYASMKEESVFRESMENPNWTEFIQRGRISITGVGFLNCVLETFASTFLRQGAQKGIRIMEMLLKEQCGAPLAE | not soluble |
| GPGSMVRIRSLAKELRQLELQKQTASLPPPRAASSDDVLDDATRSATSSRKPEAPSCSSSPRDGDILTNAAHASTTAEAEAVPSSSPASRTVAAAEPQPTSAFPLSQLSLSSPDGAHNRSRNSLYSLGGSRFNILLGGSHGDGGACRKSQVRKATRACASGGGKNGAATATATQVPQRRGEAGGSSLLEKGKDGEVVANPAPPLGTSSGIPTRPPFKRLLAQPFSHVLVCDFEATCASGSVHYPHEIIEFPVVVLDTATLRIVAEFHRYVRPLRNPKLTAFCTELTGITQEMVDVADPLPTVVAQFQDWLKTEVYPLCWMWARHYGPNRLSHNLKSEQRRFVYDEHTDAAKANTSAEAMVCMATDGPWDMRRFMHQCSVLRDGVDFPPVCYRYINVRHSYSDHFKCRQAKLTHMLKKMSMSFEGRRHSGIDDTRNIARVLAELFARGYRVHHVSTITYAHRGDAFLESNRAAQELLSEFGETDETHTSKHANAHKGGGRQRGVKRA | not soluble |
| MNTRTIYLAGGSFWGLEAYFQRIDGVVDAVSGYANGNTKNPSYEDVSYRHTGHAETVKVTYDADKLSLDDILQYFFRVVDPTSLNKQGNDTGTQYRSGVYYTDPAEKAVIAAALKREQQKYQLPLVVENEPLKNFYDAEEYHQDYLIKNPNGYCHIDIRKADEPLPGKTKTAPQGKGFDAATYKKPSDAELKRT | soluble |
